Measured values reported in patent publication US20240301052A1 (LANOVA MEDICINES DEVELOPMENT, published 2024).
Like-named read-outs stand apart in the source and are kept apart here.

Tests used:
[1] = target: T1, human SLC34A2 (human, UniProt O95436 1-690); test: cell-based or functional assay
T1 sequence (looked up): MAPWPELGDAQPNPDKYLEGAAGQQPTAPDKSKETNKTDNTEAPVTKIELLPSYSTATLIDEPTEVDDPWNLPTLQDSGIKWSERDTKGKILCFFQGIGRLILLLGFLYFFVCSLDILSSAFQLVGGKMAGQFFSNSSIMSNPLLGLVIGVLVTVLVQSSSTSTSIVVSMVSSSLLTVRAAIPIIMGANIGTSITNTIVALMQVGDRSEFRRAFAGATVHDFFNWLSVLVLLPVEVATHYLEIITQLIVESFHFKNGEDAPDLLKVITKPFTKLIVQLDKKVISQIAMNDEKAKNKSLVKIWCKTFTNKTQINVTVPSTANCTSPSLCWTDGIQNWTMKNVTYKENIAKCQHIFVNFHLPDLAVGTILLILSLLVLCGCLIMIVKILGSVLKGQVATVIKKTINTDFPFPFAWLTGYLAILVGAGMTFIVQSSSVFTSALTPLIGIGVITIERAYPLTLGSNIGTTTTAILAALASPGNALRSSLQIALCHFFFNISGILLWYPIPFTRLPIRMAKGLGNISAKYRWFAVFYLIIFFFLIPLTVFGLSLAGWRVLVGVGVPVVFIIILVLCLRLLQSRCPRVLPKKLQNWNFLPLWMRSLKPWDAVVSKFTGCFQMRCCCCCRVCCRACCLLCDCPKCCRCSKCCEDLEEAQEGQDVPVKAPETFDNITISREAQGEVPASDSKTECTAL

[2] = target: T1, human SLC34A2; test: FACS, MDAH2774 cells
[3] = target: T1, human SLC34A2; test: FACS, HEK293/human SLC34A2 cells
[4] = target: T2, rat SLC34A2 (rat, UniProt Q9JJ09 1-695); test: FACS, HEK293/Rat SLC34A2 cells
T2 construct: whole, on cells
T2 sequence (looked up): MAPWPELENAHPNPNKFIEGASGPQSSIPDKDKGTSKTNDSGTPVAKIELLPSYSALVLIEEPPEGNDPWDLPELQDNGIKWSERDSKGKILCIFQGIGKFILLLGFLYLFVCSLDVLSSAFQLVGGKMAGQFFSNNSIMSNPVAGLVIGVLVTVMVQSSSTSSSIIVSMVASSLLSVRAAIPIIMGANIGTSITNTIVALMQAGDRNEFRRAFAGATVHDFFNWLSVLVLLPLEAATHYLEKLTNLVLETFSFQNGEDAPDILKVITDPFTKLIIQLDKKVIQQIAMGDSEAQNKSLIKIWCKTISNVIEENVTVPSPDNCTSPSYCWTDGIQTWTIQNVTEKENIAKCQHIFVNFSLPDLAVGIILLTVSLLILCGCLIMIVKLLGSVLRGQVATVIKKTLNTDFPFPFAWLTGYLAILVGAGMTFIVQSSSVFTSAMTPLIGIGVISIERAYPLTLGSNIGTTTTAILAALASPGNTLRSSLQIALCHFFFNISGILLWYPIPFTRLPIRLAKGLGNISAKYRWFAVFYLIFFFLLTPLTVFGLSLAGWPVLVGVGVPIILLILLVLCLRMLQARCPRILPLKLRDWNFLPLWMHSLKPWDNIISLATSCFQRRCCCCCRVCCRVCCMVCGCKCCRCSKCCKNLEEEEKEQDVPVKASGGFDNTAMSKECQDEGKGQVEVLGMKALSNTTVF

[5] = target: T3, mouse SLC34A2 (mouse, UniProt Q9DBP0 1-697); test: FACS, HEK293/Mouse SLC34A2 cells
T3 construct: whole, on cells
T3 sequence (looked up): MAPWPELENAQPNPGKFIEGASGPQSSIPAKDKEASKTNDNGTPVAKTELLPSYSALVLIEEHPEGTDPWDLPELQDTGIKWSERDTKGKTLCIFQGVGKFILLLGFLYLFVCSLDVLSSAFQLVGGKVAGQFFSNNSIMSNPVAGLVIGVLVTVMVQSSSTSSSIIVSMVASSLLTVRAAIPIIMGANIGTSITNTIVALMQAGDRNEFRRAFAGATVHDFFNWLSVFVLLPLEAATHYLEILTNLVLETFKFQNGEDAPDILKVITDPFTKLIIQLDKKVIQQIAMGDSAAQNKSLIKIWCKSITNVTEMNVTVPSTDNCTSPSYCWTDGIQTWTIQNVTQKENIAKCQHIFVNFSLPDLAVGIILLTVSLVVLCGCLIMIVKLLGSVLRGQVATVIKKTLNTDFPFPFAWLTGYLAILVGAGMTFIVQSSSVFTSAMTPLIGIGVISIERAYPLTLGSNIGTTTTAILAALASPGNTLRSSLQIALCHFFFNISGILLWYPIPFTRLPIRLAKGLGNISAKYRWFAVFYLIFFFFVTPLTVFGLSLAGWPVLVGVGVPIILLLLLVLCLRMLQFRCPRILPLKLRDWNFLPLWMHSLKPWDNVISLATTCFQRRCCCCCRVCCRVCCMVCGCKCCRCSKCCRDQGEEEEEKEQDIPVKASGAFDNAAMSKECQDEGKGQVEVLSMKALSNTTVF

[6] = target: Cynomolgus SLC34A2 (Cynomolgus); test: FACS, cells expressing Cynomolgus SLC34A2
[7] = target: T1, human SLC34A2; test: FACS, OVCAR3 cells
Protocol: The binding of these humanized antibodies to OVCAR3 cells was evaluated as described above, and the results are shown in FIG. 12A-D and Tables 16A-D.

[8] = target: T3, mouse SLC34A2; test: FACS, HEK293/Mouse SLC34A2 cells; remark: listed apart in the source
[9] = target: T1, human SLC34A2; test: FACS, HEK293/human SLC34A2 cells
Summary of the method: (§1)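 Each cell line was labeled with humanized antibody (4° C., 60 min), then with a fluorescent conjugated secondary (4° C., 30 min), with double washes after each step; fluorescence was read by flow cytometry.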

[10] = target: T2, rat SLC34A2; test: FACS, HEK293/Rat SLC34A2 cells; remark: listed apart in the source
[11] = target: T1, human SLC34A2; test: FACS, RMG-1 cells
Summary of the method: as §1

[12] = target: T4, Rhesus SLC34A2 (Rhesus, UniProt F7HDA3 1-690); test: FACS, HEK293/Rhesus SLC34A2 cells
T4 construct: whole, on cells
T4 sequence: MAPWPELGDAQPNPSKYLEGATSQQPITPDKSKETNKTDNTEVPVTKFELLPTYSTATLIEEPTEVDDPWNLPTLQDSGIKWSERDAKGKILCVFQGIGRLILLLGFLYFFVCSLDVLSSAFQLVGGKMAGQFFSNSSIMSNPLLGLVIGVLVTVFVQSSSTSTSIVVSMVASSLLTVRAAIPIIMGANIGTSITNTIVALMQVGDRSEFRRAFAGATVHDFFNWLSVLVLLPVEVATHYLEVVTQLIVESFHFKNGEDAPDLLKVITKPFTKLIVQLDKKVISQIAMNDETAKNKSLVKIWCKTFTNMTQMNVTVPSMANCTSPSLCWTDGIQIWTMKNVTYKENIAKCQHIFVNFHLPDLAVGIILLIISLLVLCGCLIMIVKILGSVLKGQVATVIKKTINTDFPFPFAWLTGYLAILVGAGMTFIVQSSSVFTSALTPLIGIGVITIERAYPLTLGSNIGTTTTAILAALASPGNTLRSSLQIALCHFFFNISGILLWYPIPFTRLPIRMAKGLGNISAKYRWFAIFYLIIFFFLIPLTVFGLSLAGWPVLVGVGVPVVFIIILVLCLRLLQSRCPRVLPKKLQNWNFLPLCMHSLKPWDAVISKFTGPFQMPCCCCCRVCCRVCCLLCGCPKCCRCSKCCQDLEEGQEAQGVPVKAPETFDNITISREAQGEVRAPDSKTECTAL

[13] = target: T1, human SLC34A2; test: FACS, OVCAR3 cells; remark: listed apart in the source
Summary of the method: as §1

[14] = target: T1, human SLC34A2; test: cell-based or functional assay; remark: listed apart in the source

Row | Binder | EC50 [7] [nM] | Top (MFI) [7] [MFI] | binding result [8] | EC50 [9] [nM] | Top [9] [MFI] | binding result [10] | EC50 [11] [nM] | Top [11] [MFI] | EC50 [12] [nM] | Top (MFI) [12] [MFI] | EC50 [13] [nM] | other results
1 | RG-7599 (antibody, INN chains, looked up, V domains shown, vedotin (MMAE) payload) VH: EVQLVESGGGLVQPGGSLRLSCAASGFSFSDFAMSWVRQAPGKGLEWVATIGRVAFHTYYPDSMKGRFTISRDNSKNTLYLQMNSLRAEDTAVYYCARHRGFDVGHFDFWGQGTLVTVSS VL: DIQMTQSPSSLSASVGDRVTITCRSSETLVHSSGNTYLEWYQQKPGKAPKLLIYRVSNRFSGVPSRFSGSGSGTDFTLTISSLQPEDFATYYCFQGSFNPLTFGQGTKVEIK | – | – | – | – | – | – | – | – | – | – | – | ADCC reporter EC50 [1]: 1.31 nM; ADCC reporter Top (MFI) [1]: 15700 MFI; ADCC-HEK293 [1]: 2.02 nM; ADCC-OVCAR3 [1]: 2.97 nM; Cytotoxic Effect - MDAH-2774 [1]: 6.83 nM; Cytotoxic Effect - OVCAR3 [1]: 0.325 nM; EC50 [2]: 8.74 nM; EC50 [3]: 8.25 nM; EC50 [4]: 715 nM; EC50 [5]: 412 nM; EC50 [6]: 1080 nM
2 | 62G10E4G8.p3.z8 hIgG1 (antibody, V domains shown, humanized hIgG1) VH: QVQLVQSGAEVKKPGASVKVSCKASGYTFPSYITHWVRQAPGQGLEWIGAIYPGNADTSYIQKFKGRVTMTADKSTSTVYMELSSLRSEDTAVYYCARGTYGTSAWFTYWGQGTLVTVSS VL: EIVLTQSPATLSASPGERATLSCRARQNIGNNLYWYQQKPGQSPRLLIKYASQSISGIPSRFSGSGSGTDFTLTISSVQSEDFAVYFCQQSFSWPLTFGAGTKLEIK | 8.61 | 30000 | binds | 4.42 | 31500 | binds | 11.1 | 10900 | 2.5 | 12200 | 8.61 | –
3 | 62G10E4G8.p3.z11 hIgG1 (antibody, V domains shown, humanized hIgG1) VH: QVQLVQSGAEVKKPGASVKVSCKASGYTFPSYITHWVKQAPGQGLEWIGAIYPGNADTSYIQKFKGRVTLTADKSTSTAYMELSSLRSEDTAVYYCARGTYGTSAWFTYWGQGTLVTVSS VL: EIVLTQSPATLSVSPGERATLSCRARQNIGNNLYWYQQKPGQSPRLLIKYASQSISGIPSRFSGSGSGTDFTLTISSLQSEDFAVYFCQQSFSWPLTFGQGTKLEIK | 4.32 | 28200 | binds | 5.07 | 31900 | binds | 11.4 | 11300 | 3.4 | 14700 | 4.32 | ADCC reporter EC50 [14]: 3.78 nM; ADCC reporter Top (MFI) [14]: 116000 MFI
